Source: article PMC10046596, “Biophysical and Biochemical Characterization of the Binding of the MarR-like Transcriptional Regulator Saro_0803 to the nov1 Promotor and Its Inhibition by Resveratrol” (Biomolecules, 2023)

Experiments:
Saro_0803 [1] = biological target: T1, Saro_0803 (Novosphingobium aromaticivorans, UniProt Q2GA75); experiment: ITC (also SPR, Kd […]; EMSA shows inhibition of nov1p^[…]bp binding)
T1 construct: His-tagged Saro_0803 (pET-30a(+)), full-length; homogeneous dimer in solution
T1 sequence (Q2GA75 1-157): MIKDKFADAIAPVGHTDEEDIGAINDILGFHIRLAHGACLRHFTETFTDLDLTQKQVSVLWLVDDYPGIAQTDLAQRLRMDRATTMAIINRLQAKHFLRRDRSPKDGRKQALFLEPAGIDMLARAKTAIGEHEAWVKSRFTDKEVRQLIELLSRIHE

Saro_0803 [2] = biological target: T2, Saro_0803 (Novosphingobium aromaticivorans DSM …, UniProt Q2GA75 1-157); experiment: EMSA; 10 µM protein; ITC: 50 mM Tris-HCl pH 8.0, 200 mM NaCl, 5% DMSO, 25 °C, 20 µM protein, 200 µM DNA; EMSA: 5.0 µM DNA (annealed in 50 mM Tris-HCl pH 8.0, 200 mM NaCl), 37 °C 30; details: protein: recombinant; tags: His-tag (pET-30a(+), NdeI/XhoI); chain copies: 2
T2 sequence: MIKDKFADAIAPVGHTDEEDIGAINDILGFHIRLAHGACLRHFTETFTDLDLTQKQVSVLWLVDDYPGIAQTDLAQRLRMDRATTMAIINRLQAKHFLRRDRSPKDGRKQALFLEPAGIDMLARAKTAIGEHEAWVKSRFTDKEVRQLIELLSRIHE

Saro_0803 [3] = biological target: T2, Saro_0803; experiment: EMSA; ITC: 50 mM Tris-HCl pH 8.0, 200 mM NaCl, 5% DMSO, 25 °C, 20 µM protein, 200 µM DNA; EMSA: 5.0 µM DNA (annealed in 50 mM Tris-HCl pH 8.0, 200 mM NaCl), 37 °C 30; details: protein: recombinant; tags: His-tag (pET-30a(+), NdeI/XhoI); chain copies: 2
[4] = biological target: the molecule itself; experiment: AUC; sedimentation velocity, protein ~1.0 mg/mL, 40,000 rpm for 2 h at 4 °C, c(s) analysis with Sedfit
Saro_0803 K55A = biological target: T3, Saro_0803 K55A (Novosphingobium aromaticivorans DSM …, UniProt Q2GA75 1-157, K55A); experiment: ITC; 5% DMSO; ITC: 50 mM Tris-HCl pH 8.0, 200 mM NaCl, 5% DMSO, 25 °C, 20 µM protein, 200 µM DNA; EMSA: 5.0 µM DNA (annealed in 50 mM Tris-HCl pH 8.0, 200 mM NaCl), 37 °C 30; details: protein: recombinant; tags: His-tag; chain copies: 2
T3 sequence: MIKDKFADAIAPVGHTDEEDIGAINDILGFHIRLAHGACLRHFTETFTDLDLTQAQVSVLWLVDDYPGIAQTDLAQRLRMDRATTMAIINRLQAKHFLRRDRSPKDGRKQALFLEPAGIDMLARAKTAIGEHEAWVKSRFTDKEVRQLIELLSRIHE

Saro_0803 [5] = biological target: T2, Saro_0803; experiment: as above; details: protein: recombinant; tags: His-tag (pET-30a(+), NdeI/XhoI); chain copies: 2
Saro_0803 A87R = biological target: T4, Saro_0803 A87R (Novosphingobium aromaticivorans DSM …, UniProt Q2GA75 1-157, A87R); experiment: as above; details: protein: recombinant; tags: His-tag; chain copies: 2
T4 sequence: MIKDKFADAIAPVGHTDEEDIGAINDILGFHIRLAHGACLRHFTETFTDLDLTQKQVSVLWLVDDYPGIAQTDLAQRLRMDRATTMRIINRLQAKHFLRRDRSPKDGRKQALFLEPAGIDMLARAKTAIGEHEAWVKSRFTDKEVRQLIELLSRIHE

Saro_0803 R108D = biological target: T5, Saro_0803 R108D (Novosphingobium aromaticivorans DSM …, UniProt Q2GA75 1-157, R108D); experiment: as above; details: protein: recombinant; tags: His-tag; chain copies: 2
T5 sequence: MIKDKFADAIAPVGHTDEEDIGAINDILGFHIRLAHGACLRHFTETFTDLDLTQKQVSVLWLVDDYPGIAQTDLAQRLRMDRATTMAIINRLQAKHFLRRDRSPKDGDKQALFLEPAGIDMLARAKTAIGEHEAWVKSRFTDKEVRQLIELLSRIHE

Saro_0803 K109A = biological target: T6, Saro_0803 K109A (Novosphingobium aromaticivorans DSM …, UniProt Q2GA75 1-157, K109A); experiment: as above; details: protein: recombinant; tags: His-tag; chain copies: 2
T6 sequence: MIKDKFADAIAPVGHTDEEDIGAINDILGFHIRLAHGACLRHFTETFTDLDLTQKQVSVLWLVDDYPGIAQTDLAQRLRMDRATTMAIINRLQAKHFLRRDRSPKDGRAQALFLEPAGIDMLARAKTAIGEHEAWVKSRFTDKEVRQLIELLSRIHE

Saro_0803 R108A = biological target: T7, Saro_0803 R108A (Novosphingobium aromaticivorans DSM …, UniProt Q2GA75 1-157, R108A); experiment: as above; details: protein: recombinant; tags: His-tag; chain copies: 2
T7 sequence: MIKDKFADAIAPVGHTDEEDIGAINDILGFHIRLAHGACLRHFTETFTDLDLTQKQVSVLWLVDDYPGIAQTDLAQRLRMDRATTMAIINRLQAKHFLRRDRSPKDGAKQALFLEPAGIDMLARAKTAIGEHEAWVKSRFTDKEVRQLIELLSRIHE

Saro_0803 K109E = biological target: T8, Saro_0803 K109E (Novosphingobium aromaticivorans DSM …, UniProt Q2GA75 1-157, K109E); experiment: as above; details: protein: recombinant; tags: His-tag; chain copies: 2
T8 sequence: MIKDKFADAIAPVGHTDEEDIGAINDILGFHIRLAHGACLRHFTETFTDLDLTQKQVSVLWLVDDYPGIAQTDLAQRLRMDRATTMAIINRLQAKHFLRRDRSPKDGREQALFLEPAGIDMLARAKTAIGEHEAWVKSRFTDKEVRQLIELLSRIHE

Saro_0803 F30A = biological target: T9, Saro_0803 F30A (Novosphingobium aromaticivorans DSM …, UniProt Q2GA75 1-157, F30A); experiment: ITC, EMSA; micromolar or submicromolar; ITC: 50 mM Tris-HCl pH 8.0, 200 mM NaCl, 5% DMSO, 25 °C, 20 µM protein, 200 µM DNA; EMSA: 5.0 µM DNA (annealed in 50 mM Tris-HCl pH 8.0, 200 mM NaCl), 37 °C 30; details: protein: recombinant; tags: His-tag; chain copies: 2
T9 sequence: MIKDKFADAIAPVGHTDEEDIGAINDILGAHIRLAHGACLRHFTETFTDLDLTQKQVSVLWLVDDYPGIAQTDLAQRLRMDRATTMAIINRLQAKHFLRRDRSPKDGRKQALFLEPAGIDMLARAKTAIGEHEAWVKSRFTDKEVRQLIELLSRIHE

Saro_0803 F43A = biological target: T10, Saro_0803 F43A (Novosphingobium aromaticivorans DSM …, UniProt Q2GA75 1-157, F43A); experiment: as above; details: protein: recombinant; tags: His-tag; chain copies: 2
T10 sequence: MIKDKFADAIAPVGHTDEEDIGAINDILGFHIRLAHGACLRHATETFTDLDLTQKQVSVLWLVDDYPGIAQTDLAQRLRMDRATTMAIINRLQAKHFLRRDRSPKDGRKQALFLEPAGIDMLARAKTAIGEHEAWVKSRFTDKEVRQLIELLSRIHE

Saro_0803 W61A = biological target: T11, Saro_0803 W61A (Novosphingobium aromaticivorans DSM …, UniProt Q2GA75 1-157, W61A); experiment: as above; details: protein: recombinant; tags: His-tag; chain copies: 2
T11 sequence: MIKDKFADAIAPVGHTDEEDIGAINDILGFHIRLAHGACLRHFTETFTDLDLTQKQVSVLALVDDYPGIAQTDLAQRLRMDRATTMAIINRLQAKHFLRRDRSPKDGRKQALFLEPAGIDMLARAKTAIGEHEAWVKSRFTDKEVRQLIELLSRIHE

Saro_0803 F47A = biological target: T12, Saro_0803 F47A (Novosphingobium aromaticivorans DSM …, UniProt Q2GA75 1-157, F47A); experiment: as above; details: protein: recombinant; tags: His-tag; chain copies: 2
T12 sequence: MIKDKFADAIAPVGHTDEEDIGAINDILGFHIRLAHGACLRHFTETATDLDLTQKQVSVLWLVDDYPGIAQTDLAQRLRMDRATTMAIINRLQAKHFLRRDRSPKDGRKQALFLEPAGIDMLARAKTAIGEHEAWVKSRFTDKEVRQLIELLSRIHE

Oc1ccc(/C=C/c2cc(O)cc(O)c2)cc1 [resveratrol]
Kd (Saro_0803 [1]): ~35.7 µM

B1: nov1p58bp with 15 bp 3' deletion (43 bp) (dsDNA)
DNA 1: CCAACGAATGCGCTTGTCTAATTGTTAGCAATACATACAATAT
DNA 2: ATATTGTATGTATTGCTAACAATTAGACAAGCGCATTCGTTGG
binding result (Saro_0803 [2]): no binding

B2: downstream neighboring fragment (dsDNA)
DNA 1: TATTGCAAGGAGGATGCC
DNA 2: GGCATCCTCCTTGCAATA
binding result (Saro_0803 [3]): no binding

B3: Saro_0803, MarR-like transcriptional regulator of Novosphingobium aromaticivorans DSM 12444 (natural protein, UniProt Q2GA75 1-157, looked up)
chain: MIKDKFADAIAPVGHTDEEDIGAINDILGFHIRLAHGACLRHFTETFTDLDLTQKQVSVLWLVDDYPGIAQTDLAQRLRMDRATTMAIINRLQAKHFLRRDRSPKDGRKQALFLEPAGIDMLARAKTAIGEHEAWVKSRFTDKEVRQLIELLSRIHE
notes: Transcriptional regulator Saro_0803 (MarR family), encoded by gene saro_0803 of Novosphingobium aromaticivorans DSM 12444; theoretical MW of the tagged protein around 18.75 kDa; called full-length in contrast to the truncation 21-157; Cloned into pET-30a(+) by Nde I/Xho I; No removal of the tag is described; also called polyhistidine-tagged Saro_0803; His-tagged Saro_0803; source: E. coli …
stoichiometry N [4]: 2

B4: 18-bp upstream fragment (dsDNA)
DNA 1: CCAACGAATGCGCTTGTC
DNA 2: GACAAGCGCATTCGTTGG
binding result (Saro_0803 [3]): no binding

B5: nov1p22bp (dsDNA)
DNA 1: TAATTGTTAGCAATACATACAA
DNA 2: TTGTATGTATTGCTAACAATTA
binding signal (Saro_0803 K55A): ~3 fold decrease in affinity vs WT | Kd (Saro_0803 [5]): ~3.57 µM | Kd (Saro_0803 A87R): ~1.16 µM | binding result (Saro_0803 R108D): no binding | binding result (Saro_0803 K109A): no binding | binding result (Saro_0803 R108A): no binding | binding result (Saro_0803 K109E): no binding | binding result (Saro_0803 F30A): binds | binding result (Saro_0803 F43A): binds | binding result (Saro_0803 W61A): binds | binding result (Saro_0803 F47A): binds
